Test results taken from patent US20140314711A1.

T1: human IL-22 receptor complex IL22R1 and IL10R2 (human) (UniProt Q8N6P7)
T1 sequence (looked up) 1: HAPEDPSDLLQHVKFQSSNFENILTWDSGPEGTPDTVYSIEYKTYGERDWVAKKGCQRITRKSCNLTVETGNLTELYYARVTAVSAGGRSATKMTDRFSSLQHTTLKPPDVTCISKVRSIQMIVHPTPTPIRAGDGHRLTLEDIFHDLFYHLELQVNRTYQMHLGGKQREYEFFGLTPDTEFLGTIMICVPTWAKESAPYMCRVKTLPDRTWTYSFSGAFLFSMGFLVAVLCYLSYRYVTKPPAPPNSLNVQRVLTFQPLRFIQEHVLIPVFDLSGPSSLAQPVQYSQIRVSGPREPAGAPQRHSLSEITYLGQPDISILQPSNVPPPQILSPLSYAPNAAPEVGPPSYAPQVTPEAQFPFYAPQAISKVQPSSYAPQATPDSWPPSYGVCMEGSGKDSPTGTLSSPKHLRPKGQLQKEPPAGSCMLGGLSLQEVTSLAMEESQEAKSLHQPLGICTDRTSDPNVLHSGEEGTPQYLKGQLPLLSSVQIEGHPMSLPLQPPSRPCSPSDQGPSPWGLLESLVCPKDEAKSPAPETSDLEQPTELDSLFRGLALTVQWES
T1 sequence (looked up) 2: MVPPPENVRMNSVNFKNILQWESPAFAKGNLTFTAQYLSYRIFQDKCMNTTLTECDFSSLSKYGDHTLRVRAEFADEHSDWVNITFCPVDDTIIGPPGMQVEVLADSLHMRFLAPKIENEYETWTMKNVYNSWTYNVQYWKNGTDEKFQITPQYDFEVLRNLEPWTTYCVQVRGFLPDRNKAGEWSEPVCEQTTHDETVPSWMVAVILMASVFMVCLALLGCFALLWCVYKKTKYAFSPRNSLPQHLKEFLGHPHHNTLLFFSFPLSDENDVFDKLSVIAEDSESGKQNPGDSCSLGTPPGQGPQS

B1: IL-22 Fc construct 24 (huIgG1, linker …, produced in E. coli) (Fc fusion, not shown: a dimerising Fc or GST)
chain: APISSHCRLDKSNFQQPYITNRTFMLAKEASLADNNTDVRLIGEKLFHGVSMSERCYLMKQVLNFTLEEVLFPQSDRFQPYMQEVVPFLARLSNRLSTCHIEGDDLHIQRNVQKLKDTVKKLGESGEIKAIGELDLLFMSLRNACIEPKSSDKTHTCPPCP
B2: IL-22 Fc construct 12 (huIgG1, linker …) (Fc fusion, not shown: a dimerising Fc or GST)
chain: APISSHCRLDKSNFQQPYITNRTFMLAKEASLADNNTDVRLIGEKLFHGVSMSERCYLMKQVLNFTLEEVLFPQSDRFQPYMQEVVPFLARLSNRLSTCHIEGDDLHIQRNVQKLKDTVKKLGESGEIKAIGELDLLFMSLRNACIDKKVEPKSSDKTHTCPPCP
B3: IL-22 Fc construct 18 (huIgG1, linker …, N297G) (Fc fusion, not shown: a dimerising Fc or GST)
chain: APISSHCRLDKSNFQQPYITNRTFMLAKEASLADNNTDVRLIGEKLFHGVSMSERCYLMKQVLNFTLEEVLFPQSDRFQPYMQEVVPFLARLSNRLSTCHIEGDDLHIQRNVQKLKDTVKKLGESGEIKAIGELDLLFMSLRNACIKKVEPKSSDKTHTCPPCP
B4: IL-22 Fc construct 13 (huIgG1, linker …) (Fc fusion, not shown: a dimerising Fc or GST)
chain: APISSHCRLDKSNFQQPYITNRTFMLAKEASLADNNTDVRLIGEKLFHGVSMSERCYLMKQVLNFTLEEVLFPQSDRFQPYMQEVVPFLARLSNRLSTCHIEGDDLHIQRNVQKLKDTVKKLGESGEIKAIGELDLLFMSLRNACIKVDKKVEPKSSDKTHTCPPCP

Target: T1, human IL-22 receptor complex IL22R1 and IL10R2 (human)
Test: cell-based or functional assay

Row | EC50 (STAT3 luciferase reporter assay) [pM] | Binder
1 | 16 | B1
2 | 25 | B2
3 | 20 | B3
4 | 25 | B4
